Laboratory results as given in PMC5389651.

T1: Nop15 81-220 (Saccharomyces cerevisiae, UniProt P53927 81-220)
T1 sequence: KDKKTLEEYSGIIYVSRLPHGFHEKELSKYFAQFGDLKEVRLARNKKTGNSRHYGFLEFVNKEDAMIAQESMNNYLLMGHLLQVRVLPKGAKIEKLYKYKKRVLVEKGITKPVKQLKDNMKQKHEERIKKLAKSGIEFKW

T2: Nop15 81-191 (Saccharomyces cerevisiae, UniProt P53927 81-191)
T2 sequence: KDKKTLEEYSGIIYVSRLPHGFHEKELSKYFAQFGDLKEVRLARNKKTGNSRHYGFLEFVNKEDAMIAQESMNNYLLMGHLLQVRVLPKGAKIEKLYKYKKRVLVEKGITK

T3: Nop15 81-180 (Saccharomyces cerevisiae, UniProt P53927 81-180)
T3 sequence: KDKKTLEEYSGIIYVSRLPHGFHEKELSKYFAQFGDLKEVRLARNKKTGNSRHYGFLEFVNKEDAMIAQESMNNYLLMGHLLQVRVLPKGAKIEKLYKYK

T4: Nop15 (Saccharomyces cerevisiae, UniProt P53927 1-220)
T4 sequence: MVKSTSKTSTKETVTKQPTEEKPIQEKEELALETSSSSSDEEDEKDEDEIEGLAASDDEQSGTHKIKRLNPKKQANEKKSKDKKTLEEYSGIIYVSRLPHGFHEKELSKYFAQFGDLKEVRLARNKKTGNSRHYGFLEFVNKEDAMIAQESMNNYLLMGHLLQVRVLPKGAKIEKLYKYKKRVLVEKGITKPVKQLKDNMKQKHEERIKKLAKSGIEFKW


Tests used:
Assay in all cases: fluorescence polarization; 150 mM NaCl; 50 mM HEPES pH 7.5, 150 mM NaCl (250 mM in one row), room temperature, 40 min, 9 nM RNA
Nop15 81-220 = biological target: T1, Nop15 81-220
Nop15 81-191 = biological target: T2, Nop15 81-191
Nop15 81-180 = biological target: T3, Nop15 81-180
Nop15 = biological target: T4, Nop15

Binder	Kd (Nop15 81-220)	further results
UGAGUGAUACUCUUUGGAGUUAACUU (structured_RNA) [ITS2 26-51]	104 ± 3.6 nM	
UGAGUGAUCAACUUUGGUUGUAACUUGAAAUUGCU (structured_RNA) [ITS2 26-60 upper]	44.9 ± 4.3 nM	
UGAGUCUAACUCUUUGGAGUAUACUUGAAAUUGCU (structured_RNA) [ITS2 26-60 bulge]	73.6 ± 5.6 nM	
UGAGUGAUACUCUUUGGAGUAUCACUUGAAAUUGCU (structured_RNA) [ITS2 26-60 paired]	89 ± 8.9 nM	
UGAGUGAUACUCUUUGGAGUUAACUUGAAAUUGCU (structured_RNA) [ITS2 26-60 WT]	35.4 ± 1.3 nM	Kd (Nop15 81-191): 209 ± 15 nM; Kd (Nop15 81-180): 1050 ± 111 nM; Kd (Nop15): 293 ± 23 nM
UGACAGAUACUCUUUGGAGUUAUGUUGAAAUUGCU (structured_RNA) [ITS2 26-60 lower1]	52.1 ± 3.6 nM	
UGAGUGAUCAUCUUUGGAGUUAACUUGAAAUUGCU (structured_RNA) [ITS2 26-60 disrupted upper]	35.5 ± 3.2 nM	
UCUGUGAUACUCUUUGGAGUUAACUUGAAAUUGCU (structured_RNA) [ITS2 26-60 disrupted lower]	144 ± 16 nM	
UUUGUGAUACUCUUUGGAGUUAACAGGAAAUUGCU (structured_RNA) [ITS2 26-60 lower2]	39.3 ± 2.7 nM	
